Read-outs that look alike come from different tables or passages of the source.
T1: IL-18 receptor (IL-18Rα/IL-18Rβ) overexpressed on HEK-Blue IL-18 cells (Homo sapiens (Human), UniProt Q13478 19-541; O95256 20-599)
T1 sequence 1: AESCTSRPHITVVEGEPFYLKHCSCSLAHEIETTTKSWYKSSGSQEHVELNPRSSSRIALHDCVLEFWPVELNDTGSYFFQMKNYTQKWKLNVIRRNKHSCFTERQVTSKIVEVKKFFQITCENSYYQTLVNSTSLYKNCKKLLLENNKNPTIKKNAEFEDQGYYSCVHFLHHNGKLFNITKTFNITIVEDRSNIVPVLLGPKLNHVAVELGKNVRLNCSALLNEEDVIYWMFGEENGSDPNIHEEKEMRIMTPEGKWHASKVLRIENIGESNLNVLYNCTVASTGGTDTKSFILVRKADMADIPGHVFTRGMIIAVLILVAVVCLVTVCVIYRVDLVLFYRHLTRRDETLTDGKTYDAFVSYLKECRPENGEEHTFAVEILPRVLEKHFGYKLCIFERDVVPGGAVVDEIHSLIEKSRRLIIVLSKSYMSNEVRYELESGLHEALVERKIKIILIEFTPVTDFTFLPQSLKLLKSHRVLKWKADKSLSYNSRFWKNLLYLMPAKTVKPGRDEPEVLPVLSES
T1 sequence 2: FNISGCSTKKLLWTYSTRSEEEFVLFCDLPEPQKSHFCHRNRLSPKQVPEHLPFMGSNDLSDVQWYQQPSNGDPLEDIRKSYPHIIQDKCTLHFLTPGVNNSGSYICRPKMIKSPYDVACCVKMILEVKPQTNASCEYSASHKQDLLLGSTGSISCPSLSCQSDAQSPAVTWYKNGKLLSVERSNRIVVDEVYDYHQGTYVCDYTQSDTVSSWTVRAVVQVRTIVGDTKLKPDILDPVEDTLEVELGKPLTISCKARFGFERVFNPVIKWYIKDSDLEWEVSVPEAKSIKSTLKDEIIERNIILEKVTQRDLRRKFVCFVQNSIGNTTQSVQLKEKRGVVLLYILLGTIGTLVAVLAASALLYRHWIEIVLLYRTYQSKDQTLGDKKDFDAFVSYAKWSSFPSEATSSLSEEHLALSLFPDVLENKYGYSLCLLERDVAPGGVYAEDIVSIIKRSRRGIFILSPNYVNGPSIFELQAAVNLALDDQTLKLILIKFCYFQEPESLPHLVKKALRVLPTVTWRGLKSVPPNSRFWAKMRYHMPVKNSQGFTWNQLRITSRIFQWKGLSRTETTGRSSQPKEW


Tests used:
Assay in all cases: cell-based or functional assay
[1] = target: T1, IL-18 receptor (IL-18Rα/IL-18Rβ) …
[2] = target: T1, IL-18 receptor (IL-18Rα/IL-18Rβ) …; remark: listed apart in the source
[3] = target: T1, IL-18 receptor (IL-18Rα/IL-18Rβ) …; remark: listed apart in the source
[4] = target: T1, IL-18 receptor (IL-18Rα/IL-18Rβ) …; remark: listed apart in the source

HEK-Blue IL-18: Abs 405 [1] [Abs]	HEK-Blue IL-18: Fold over Background [1] [fold]	Binder	also measured
0.28	2.3	DGL164 (bispecific antibody) heavy 1: QVQLVESGGGLVQAGGSLRLSCAASGRTFSSYTMGWFRQAPGKEREFVAAISWSAGRTYYADSVKGRFTISRDNAKNTVYLQMNSLKPEDTAVYFCAAEEAPDWAPIDCSGYGCLSLYDYWGQGTQVTVSSDKGPSVFPLAPEPKSSQVQLVESGGGLVQAGGSLRLSCAASQTGFNMNRMGWYRQAPGKQRELVATITGGGSTTYADSVKGRFDISRGNVENNLYLQMNSLKPEDTAVYYCNALLFGRDYWGQGTQVTVSSDKTHTCPPCPAPEAAGGPSVFLFPPKPKDTLMISRTPEVTCVVVDVSHEDPEVKFNWYVDGVEVHNAKTKPREEQYNSTYRVVSVLTVLHQDWLNGKEYKCKVSNKALPAPIEKTISKAKGQPREPQVCTLPPSRDELTKNQVSLSCAVKGFYPSDIAVEWESNGQPENNYKTTPPVLDSDGSFFLVSKLTVDKSRWQQGNVFSCSVMHEALHNHYTQKSLSLSPG heavy 2: not shown	–
0.12	1	DGL166 (bispecific antibody) heavy 1: EVQLVESGGGLVQPGGSLRLSCAASGFFLDDYVLGWFRQAPGKPREGVSCISSRGRYLNYAETVKGRFTISRSNAKNTVYLQMNNLEPEDTAVYYCAAVRRVSEVCKLAEDDFASWGQGTQVTVSSGGGSQVQLVESGGGLVQAGDSLRLSCVASERTFSSYTMGWFRQAPGKEREFTAALSWWNGGISTAYADSVKGRFTISRDNAKNTVYLQMNSLKTEDTALYYCAAARDRMPRADEYDYWGQGTQVTVSSDKTHTCPPCPAPEAAGGPSVFLFPPKPKDTLMISRTPEVTCVVVDVSHEDPEVKFNWYVDGVEVHNAKTKPREEQYNSTYRVVSVLTVLHQDWLNGKEYKCKVSNKALPAPIEKTISKAKGQPREPQVCTLPPSRDELTKNQVSLSCAVKGFYPSDIAVEWESNGQPENNYKTTPPVLDSDGSFFLVSKLTVDKSRWQQGNVFSCSVMHEALHNHYTQKSLSLSPG heavy 2: not shown	–
0.66	5.5	DGL167 (bispecific antibody) heavy 1: QVQLVESGGGLVQAGGSLRLSCAASGRTFSKHAMGWFRQAPGKEREFVAAIDWSGGSTYYADSVKGRFTISRDNAKNTVYLQMDSLKPEDTAVYYCAADSYTDYAQLWLPELESEYDYWGQGTQVTVSSGGGSQVQLQESGGGLVQAGGSLKLSCQASGLTFKRNTMGWFRQAPGKEREFVAHFLWTGGETDYADAVKGRFTISRDNAKNTVYLQMNSLKPEDTAVYFCAANYAGYRIDGYQYWGQGTQVTVSSDKTHTCPPCPAPEAAGGPSVFLFPPKPKDTLMISRTPEVTCVVVDVSHEDPEVKFNWYVDGVEVHNAKTKPREEQYNSTYRVVSVLTVLHQDWLNGKEYKCKVSNKALPAPIEKTISKAKGQPREPQVCTLPPSRDELTKNQVSLSCAVKGFYPSDIAVEWESNGQPENNYKTTPPVLDSDGSFFLVSKLTVDKSRWQQGNVFSCSVMHEALHNHYTQKSLSLSPG heavy 2: not shown	–
0.36	3	DGL163 (bispecific antibody) heavy 1: QVQLVESGGGLVQAGGSLRLSCAASGRTFSSYNMGWFRQAPGKERESVAAISWSGGSSYYADSVKGRFTISRDNAKPTVYLQMNSLKPEDTAVYYCAADRDSEEWDGSSWFFKSDYWGQGTQVTVSSDKGPSVFPLAPEPKSSQVQLVESGGGLVQTGGPLRLSCAASGGTFSRYTMGWFRQAPGKEREYVAAISWRGSSIYYADAVKGRFTISRDSAKSTVYLQMNNLNSDDTAVYYCAADRTDLPRNAGEYGYWGQGTQVTVSSDKTHTCPPCPAPEAAGGPSVFLFPPKPKDTLMISRTPEVTCVVVDVSHEDPEVKFNWYVDGVEVHNAKTKPREEQYNSTYRVVSVLTVLHQDWLNGKEYKCKVSNKALPAPIEKTISKAKGQPREPQVCTLPPSRDELTKNQVSLSCAVKGFYPSDIAVEWESNGQPENNYKTTPPVLDSDGSFFLVSKLTVDKSRWQQGNVFSCSVMHEALHNHYTQKSLSLSPG heavy 2: not shown	–
0.19	1.6	DGL165 (bispecific antibody) heavy 1: QVQLVESGGGLVQAGGSLRLSCAASGRTFSSYTMGWFRQAPGKEREFVAAISWSAGRTYYADSVKGRFTISRDNAKNTVYLQMNSLKPEDTAVYFCAAEEAPDWAPIDCSGYGCLSLYDYWGQGTQVTVSSGGGSEVQLVESGGGLVQAGGSLRLSCAASGRTFRNYHMGWFRQAPGQEREFVAAISSSGGKTSYPDSVNGRFTISRDNAKNTVYLQMNNLKVEDTAVYYCAADPRYWVAAGGSEPENVEVWGQGTLVTVSSDKTHTCPPCPAPEAAGGPSVFLFPPKPKDTLMISRTPEVTCVVVDVSHEDPEVKFNWYVDGVEVHNAKTKPREEQYNSTYRVVSVLTVLHQDWLNGKEYKCKVSNKALPAPIEKTISKAKGQPREPQVCTLPPSRDELTKNQVSLSCAVKGFYPSDIAVEWESNGQPENNYKTTPPVLDSDGSFFLVSKLTVDKSRWQQGNVFSCSVMHEALHNHYTQKSLSLSPG heavy 2: not shown	–

Continued, binder first:

Binder	HEK-Blue IL-18: Abs 405 [1] [Abs]	HEK-Blue IL-18: Fold over Background [1] [fold]	also measured
DGL161 (bispecific antibody) heavy 1: EVQLVESGGGLVQPGGSLRLSCAASGFFLDDYVLGWFRQAPGKPREGVSCISSRGRYLNYAETVKGRFTISRSNAKNTVYLQMNNLEPEDTAVYYCAAVRRVSEVCKLAEDDFASWGQGTQVTVSSDKGPSVFPLAPEPKSSQVQLVESGGGLVQAGDSLRLSCVASERTFSSYTMGWFRQAPGKEREFTAALSWWNGGISTAYADSVKGRFTISRDNAKNTVYLQMNSLKTEDTALYYCAAARDRMPRADEYDYWGQGTQVTVSSDKTHTCPPCPAPEAAGGPSVFLFPPKPKDTLMISRTPEVTCVVVDVSHEDPEVKFNWYVDGVEVHNAKTKPREEQYNSTYRVVSVLTVLHQDWLNGKEYKCKVSNKALPAPIEKTISKAKGQPREPQVCTLPPSRDELTKNQVSLSCAVKGFYPSDIAVEWESNGQPENNYKTTPPVLDSDGSFFLVSKLTVDKSRWQQGNVFSCSVMHEALHNHYTQKSLSLSPG heavy 2: not shown	0.19	1.6	–
DGL093 (bispecific antibody) heavy 1: QVQLVESGGGLVQAGGSLRLSCAASGRTFSKHAMGWFRQAPGKEREFVAAIDWSGGSTYYADSVKGRFTISRDNAKNTVYLQMDSLKPEDTAVYYCAADSYTDYAQLWLPELESEYDYWGQGTQVTVSSDKTHTCPPCPAPEAAGGPSVFLFPPKPKDTLMISRTPEVTCVVVDVSHEDPEVKFNWYVDGVEVHNAKTKPREEQYNSTYRVVSVLTVLHQDWLNGKEYKCKVSNKALPAPIEKTISKAKGQPREPQVCTLPPSRDELTKNQVSLSCAVKGFYPSDIAVEWESNGQPENNYKTTPPVLDSDGSFFLVSKLTVDKSRWQQGNVFSCSVMHEALHNHYTQKSLSLSPG heavy 2: not shown	–	–	HEK-Blue IL-18: Abs 405 at 100 nM [2]: 0.9 Abs; HEK-Blue IL-18: Fold over Background [2]: 4.1 fold; HEK-Blue IL-18: Fold over Background [3]: 9.2 fold; HEK-Blue IL-18: Abs405 (Emax) [4]: 1.38 Abs; HEK-Blue IL-18: EC50 [4]: 8.3 pM
DGL162 (bispecific antibody) heavy 1: QVQLVESGGGLVQAGGSLRLSCAASGRTFSKHAMGWFRQAPGKEREFVAAIDWSGGSTYYADSVKGRFTISRDNAKNTVYLQMDSLKPEDTAVYYCAADSYTDYAQLWLPELESEYDYWGQGTQVTVSSDKGPSVFPLAPEPKSSQVQLQESGGGLVQAGGSLKLSCQASGLTFKRNTMGWFRQAPGKEREFVAHFLWTGGETDYADAVKGRFTISRDNAKNTVYLQMNSLKPEDTAVYFCAANYAGYRIDGYQYWGQGTQVTVSSDKTHTCPPCPAPEAAGGPSVFLFPPKPKDTLMISRTPEVTCVVVDVSHEDPEVKFNWYVDGVEVHNAKTKPREEQYNSTYRVVSVLTVLHQDWLNGKEYKCKVSNKALPAPIEKTISKAKGQPREPQVCTLPPSRDELTKNQVSLSCAVKGFYPSDIAVEWESNGQPENNYKTTPPVLDSDGSFFLVSKLTVDKSRWQQGNVFSCSVMHEALHNHYTQKSLSLSPG heavy 2: not shown	0.79	6.6	–
DGL160 (bispecific antibody) heavy 1: QVQLVESGGGLVQAGGSLRLSCAASGRTFSSYTMGWFRQAPGKEREFVAAISWSAGRTYYADSVKGRFTISRDNAKNTVYLQMNSLKPEDTAVYFCAAEEAPDWAPIDCSGYGCLSLYDYWGQGTQVTVSSDKGPSVFPLAPEPKSSEVQLVESGGGLVQAGGSLRLSCAASGRTFRNYHMGWFRQAPGQEREFVAAISSSGGKTSYPDSVNGRFTISRDNAKNTVYLQMNNLKVEDTAVYYCAADPRYWVAAGGSEPENVEVWGQGTLVTVSSDKTHTCPPCPAPEAAGGPSVFLFPPKPKDTLMISRTPEVTCVVVDVSHEDPEVKFNWYVDGVEVHNAKTKPREEQYNSTYRVVSVLTVLHQDWLNGKEYKCKVSNKALPAPIEKTISKAKGQPREPQVCTLPPSRDELTKNQVSLSCAVKGFYPSDIAVEWESNGQPENNYKTTPPVLDSDGSFFLVSKLTVDKSRWQQGNVFSCSVMHEALHNHYTQKSLSLSPG heavy 2: not shown	0.16	1.3	–

Reference: US20240209100A1 (DIAGONAL THERAPEUTICS, published 2024)
